Experimental data taken from US20220403048A1, “BINDING MOLECULES TO ARGINASE II [ARG2]” (Cancer Research Technology Limited, priority 2019, published 2022).

Columns and labels:
[1] = system: recombinant cynomolgus monkey trimeric ARG2 enzyme; assay: Direct binding HTRF assay, cynomolgus trimeric ARG2; settings: purified scFv, FIG. 1C
ARG2 [2] = target: T1, ARG2 (Homo sapiens, UniProt P78540); assay: Isothermal titration calorimetry of BEC with ARG2 and ARG2-C0021158 fab complex; format: binding; design: human ARG2 (aa23-354); His10 (C); made in house; host or cells: E. coli BL21 (DE3); settings: 20 μM ARG2 and 20 μM C0021158 fab, 0.50 mM BEC titrated, 25° C.
T1 sequence (P78540 23-354): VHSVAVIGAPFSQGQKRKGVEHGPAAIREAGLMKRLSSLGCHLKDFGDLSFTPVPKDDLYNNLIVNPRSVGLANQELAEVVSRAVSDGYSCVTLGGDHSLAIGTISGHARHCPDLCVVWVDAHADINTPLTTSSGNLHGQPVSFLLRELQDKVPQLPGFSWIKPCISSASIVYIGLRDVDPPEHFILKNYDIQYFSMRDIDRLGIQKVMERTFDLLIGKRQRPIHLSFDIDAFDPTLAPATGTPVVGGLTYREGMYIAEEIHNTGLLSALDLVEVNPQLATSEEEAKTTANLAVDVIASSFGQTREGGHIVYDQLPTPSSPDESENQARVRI
Experimental: To assess the accessibility of the ARG2 active site, we analysed binding of the ARG2 small-molecule inhibitor S-(2-Boronoethyl)-L-cysteine hydrochloride (BEC) by isothermal titration calorimetry (ITC) using a VP ITC (MicroCal) set to 25° C. (FIG. 15B). BEC is an arginine analogue that binds to the active site of ARG2. First, volumes of 10 μl of a solution containing 0.75 mM BEC were added to 20 μM of ARG2 (monomer concentration). The resulting thermogram was integrated using NITPIC and the binding isotherm was fitted with SEDPHAT using a one-binding site model. In a second experiment, volumes of 10 μl of 0.50 mM BEC were added to a solution containing a pre-incubated 1:1 molar mixture of C0021158 fab and ARG2 (both 20 μM, incubation 1 h at 20° C.).

ARG2 [3] = target: T1, ARG2; assay: Size-exclusion chromatography of ARG2-Fab binding stoichiometry; design: human ARG2 (aa23-354); His10 (C); made in house; host or cells: E. coli BL21 (DE3); settings: FIG. 23A
Experimental: ARG2 and Fabs were analysed at concentrations of 8 μM (referring to monomers) in SEC buffer containing 25 mM tris at pH 7.4 and 150 mM NaCl. ARG2-Fab complexes were formed by mixing both ARG2 and Fabs at concentrations of 8 μM (referring to monomers) in SEC buffer and incubation on ice for 1 h. For size-exclusion chromatography, […] of sample were injected into a 100 μl loop connected to a Superose 6 Increase 10/300 GL column (GE Healthcare) which was mounted to an AKTAexpress FPLC system (GE Healthcare). The column was equilibrated in SEC buffer, and SEC was performed at a flow rate of 0.5 ml/min. Molecular-weight estimates are based on the retention volumes seen for β-amylase, bovine serum albumin and carbonic anhydrase, which were analysed on the same FPLC system under identical conditions.

[4] = target: T2, THP-1 lysate derived human trimeric ARG2 (Homo sapiens, UniProt P78540); assay: THP-1 lysate derived human ARG2 enzyme inhibition assay; format: biochemical; settings: recombinant human IgG1, lysate without plasma (section 3.3), FIG. 13; read-out: THP-1 lysate ARG2 EIA IC50
T2 construct: expressed in transfected cells; host or cells: THP-1 cells overexpressing human ARG2 (cell lysate)
T2 sequence (P78540 23-354): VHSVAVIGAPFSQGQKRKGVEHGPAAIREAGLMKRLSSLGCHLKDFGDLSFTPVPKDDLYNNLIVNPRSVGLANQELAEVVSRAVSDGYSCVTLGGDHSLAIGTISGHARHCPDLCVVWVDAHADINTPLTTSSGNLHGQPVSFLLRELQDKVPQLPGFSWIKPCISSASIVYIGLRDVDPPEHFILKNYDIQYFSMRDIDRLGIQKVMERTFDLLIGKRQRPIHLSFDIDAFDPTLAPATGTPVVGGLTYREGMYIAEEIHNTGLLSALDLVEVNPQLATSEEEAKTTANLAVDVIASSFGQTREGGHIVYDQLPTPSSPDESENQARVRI
Experimental: Anti-ARG2 IgGs were tested for their ability to inhibit mammalian expressed human ARG2 produced in transfected THP-1 cells. To do this cell lysates were prepared from THP-1 cells overexpressing human ARG2 and from wild type THP-1 cells. 350 million cells were suspended in 3 ml tris buffered saline (25 mM Tris+150 mM sodium chloride in dH2O, pH 7.4) and cell lysates prepared by passing through a 26G needle 20 times. A BCA assay was used to measure the protein concentration in the lysate. […] Antibodies were tested alongside N-Hydroxyl-L-Arginine (a small molecule competitive inhibitor of ARG2) as a positive control and CEA6 (irrelevant isotype control antibody) as a negative control. Data points were plotted and IC50 values determined using a four parameter fit in GraphPad Prism (FIG. 11, Table 13).
Anti-ARG2 IgGs were tested for their ability to inhibit to mammalian expressed human ARG2 produced in transfected THP-1 cells. […] Urea detection reagents, O-Phthaldialdehyde (1.5 mM O-Phthaldialdehyde, 7% H2SO4, 0.03% Brij L23) and N-(1-Napthyl)ethylenediamine (1.66 mM N-(1-Napthyl)ethylenediamine, 81 mM Boric acid, 21% H2SO4, 0.03% Brij L23) were mixed 1:1 just prior to use and 80 μl/well were added, incubated for 1 hour at room temperature and absorbance at 505 nm was read on a Pherastar plate reader. […]

Chain of recombinant cynomolgus monkey trimeric ARG2 enzyme (as listed by the source): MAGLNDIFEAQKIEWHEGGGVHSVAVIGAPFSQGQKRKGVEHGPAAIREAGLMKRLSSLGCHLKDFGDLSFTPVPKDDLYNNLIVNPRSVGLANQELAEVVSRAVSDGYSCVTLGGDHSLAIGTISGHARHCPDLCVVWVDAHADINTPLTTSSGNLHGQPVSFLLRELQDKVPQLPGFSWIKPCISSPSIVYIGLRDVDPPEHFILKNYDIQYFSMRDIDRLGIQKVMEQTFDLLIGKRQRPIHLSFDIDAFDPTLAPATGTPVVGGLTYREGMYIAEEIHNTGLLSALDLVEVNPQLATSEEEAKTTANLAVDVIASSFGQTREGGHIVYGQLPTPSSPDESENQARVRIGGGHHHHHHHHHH

B1: C0020065: anti-ARG2 antibody, alternate lead isolation clone, VH SEQ ID NO: 2, VL SEQ ID NO: 7 (antibody, listed as Homo sapiens, V domains shown)
VH: GVNLRESGGGVVQPGRSLRLSCAASGFTFSSYAMHWVRQAPGKGLEWVAVISYDGSNKYYVDSVKGRFTISRDNSKNTLYLQMNSLRAEDTAVYYCARDSSQLWFDYWGRGTLVTVSS
VL: QSVVTQPPSVSGAPGQRVTISCTGSSSNIGTGYDVHWYQQLPGTAPKLLIYGNSNRPSGVPDRFSGSKSGTSASLAITGLQAEDEADYYCQSYDSSLSGSVVFGGGTQLTVL
modifications: C0020065
binding to biotinylated recombinant cynomolgus trimeric ARG2 enzyme [1]: bound

B2: C0021158 IgG: anti-ARG2 antibody, VH SEQ ID NO: 282, VL SEQ ID NO: 287; IgG and Fab versions carry these sequences (antibody, listed as Homo sapiens, V domains shown)
VH: EVQLLESGGGLVQPGGSLRLSCAASGFTFRYEVAAWVRQAPGKGLEWVSAISGPIPKGYYADSVKGRFTISRDNSKNTLYLQMNSLRAEDTAVYYCARLRADLGLYMDLWGRGTLVTVSS
VL: QSVLTQPPSVSAAPGQKVTISCSGSSSNIGNHYVSWYQQLPGTAPKLLIYDNSERTAGVPDRFSGSKSGTSATLGITGLQTGDEADYYCGTWDELTSNLVFGGGTKLTVL
modifications: C0021158 IgG
effect on binding of BEC to ARG2 (ITC) (ARG2 [2]): prevents BEC from binding

B3: C0021139: anti-ARG2 antibody, VH SEQ ID NO: 212, VL SEQ ID NO: 217 (antibody, listed as Homo sapiens, V domains shown)
VH: EVQLLESGGGLVQPGGSLRLSCAASGFTFQYDYQVWVRQAPGKGLEWVSAISGSGGSTYYADSVKGRFTISRDNSKNTLYLQMNSLRAEDTAVYYCARLRADLGLYMDLWGRGTLVTVSS
VL: QSVLTQPPSVSAAPGQKVTISCSGSSSNIGNHYVSWYQQLPGTAPKLLIYDNSERTSGIPDRFSGSKSGTSATLGITGLQTGDEADYYCGTWDELTSNLVFGGGTKLTVL
modifications: C0021139
size-exclusion peak of 1:1 molar mixture of ARG2 and Fab (ARG2 [3]; 8 μM each): 275 kDa | Fabs bound to one ARG2 trimer (ARG2 [3]; from size-exclusion profile): three Fabs

B4: C0021158: anti-ARG2 antibody, second generation lead, VH SEQ ID NO: 272, VL SEQ ID NO: 277 (antibody, listed as Homo sapiens, V domains shown)
VH: EVQLLESGGGLVQPGGSLRLSCAASGFTFRYEVAAWVRQAPGKGLEWVSAISGPIPKGYYADSVKGRFTISRDNSKNTLYLQMNSLRAEDTAVYYCARLRADLGLYMDLWGRGTLVTVPS
VL: QSVLTQPPSVSAAPGQKVTISCSGSSSNIGNHYVSWYQQLPGTAPKLLIYDNSERTAGVPDRFSGSKSGTSATLGITGLQTGDEADYYCGTWDELTSNLVFGGGTKLTVL
modifications: C0021158
IC50 [4]: 5.36 nM
